Earlier results as cited in PMC3253018.

Target: NiV-G attachment glycoprotein (Nipah virus) (UniProt Q9IH62)
Sequence (Q9IH62 whole entry): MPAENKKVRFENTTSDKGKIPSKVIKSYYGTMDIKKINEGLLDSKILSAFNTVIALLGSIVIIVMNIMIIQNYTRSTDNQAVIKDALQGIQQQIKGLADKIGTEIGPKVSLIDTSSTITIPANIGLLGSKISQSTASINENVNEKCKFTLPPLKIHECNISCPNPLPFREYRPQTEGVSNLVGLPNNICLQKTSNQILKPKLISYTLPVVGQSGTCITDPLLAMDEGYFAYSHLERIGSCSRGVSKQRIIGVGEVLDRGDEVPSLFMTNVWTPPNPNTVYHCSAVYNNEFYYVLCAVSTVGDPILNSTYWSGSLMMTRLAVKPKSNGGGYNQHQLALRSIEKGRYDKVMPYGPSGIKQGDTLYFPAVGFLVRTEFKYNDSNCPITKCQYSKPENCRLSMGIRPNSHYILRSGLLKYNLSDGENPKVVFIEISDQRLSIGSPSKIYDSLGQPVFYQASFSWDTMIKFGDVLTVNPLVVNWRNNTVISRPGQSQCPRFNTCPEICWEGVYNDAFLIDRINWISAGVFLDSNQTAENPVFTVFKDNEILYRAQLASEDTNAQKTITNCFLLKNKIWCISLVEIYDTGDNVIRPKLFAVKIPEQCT

Sequence of ephrinB2 (P52799 28-333): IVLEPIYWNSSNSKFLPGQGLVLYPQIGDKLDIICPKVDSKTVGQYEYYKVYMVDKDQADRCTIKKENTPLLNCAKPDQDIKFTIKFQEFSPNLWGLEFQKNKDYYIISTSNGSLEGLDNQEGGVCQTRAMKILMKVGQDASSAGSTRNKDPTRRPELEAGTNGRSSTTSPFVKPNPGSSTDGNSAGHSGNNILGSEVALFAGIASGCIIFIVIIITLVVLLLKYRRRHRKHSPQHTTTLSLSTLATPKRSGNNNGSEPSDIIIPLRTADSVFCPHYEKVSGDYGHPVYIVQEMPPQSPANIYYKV

Q: With ephrinB2 (from UniProt P52799) as the substance, how does the Kd read?
A: The Kd was 0.06 nM.
